# In IntAct's records for PubMed 35512704:
# B1: Mothers against decapentaplegic homolog 4 (Homo sapiens), Q13485 (parent)
# chain: MDNMSITNTPTSNDACLSIVHSLMCHRQGGESETFAKRAIESLVKKLKEKKDELDSLITAITTNGAHPSKCVTIQRTLDGRLQVAGRKGFPHVIYARLWRWPDLHKNELKHVKYCQYAFDLKCDSVCVNPYHYERVVSPGIDLSGLTLQSNAPSSMMVKDEYVHDFEGQPSLSTEGHSIQTIQHPPSNRASTETYSTPALLAPSESNATSTANFPNIPVASTSQPASILGGSHSEGLLQIASGPQPGQQQNGFTGQPATYHHNSTTTWTGSRTAPYTPNLPHHQNGHLQHHPPMPPHPGHYWPVHNELAFQPPISNHPAPEYWCSIAYFEMDVQVGETFKVPSSCPIVTVDGYVDPSGGDRFCLGQLSNVHRTEAIERARLHIGKGVQLECKGEGDVWVRCLSDHAVFVQSYYLDREAGRAPGDAVHKIYPSAYIKVFDLRQCHRQMQQQAATAQAAAAAQAAAVAGNIPGPGSVGGIAPAISLSAAAGIGVDDLRRLCILRMSFVKGWGPDYPRQSIKETPCWIEIHLHRALQLLDEVLHTMPIADPQPLD
# Variants of: B1
# Conditions: with smad3_human SMAD3, P84022
# Sequence of smad3_human SMAD3, P84022 (P84022 whole entry, looked up): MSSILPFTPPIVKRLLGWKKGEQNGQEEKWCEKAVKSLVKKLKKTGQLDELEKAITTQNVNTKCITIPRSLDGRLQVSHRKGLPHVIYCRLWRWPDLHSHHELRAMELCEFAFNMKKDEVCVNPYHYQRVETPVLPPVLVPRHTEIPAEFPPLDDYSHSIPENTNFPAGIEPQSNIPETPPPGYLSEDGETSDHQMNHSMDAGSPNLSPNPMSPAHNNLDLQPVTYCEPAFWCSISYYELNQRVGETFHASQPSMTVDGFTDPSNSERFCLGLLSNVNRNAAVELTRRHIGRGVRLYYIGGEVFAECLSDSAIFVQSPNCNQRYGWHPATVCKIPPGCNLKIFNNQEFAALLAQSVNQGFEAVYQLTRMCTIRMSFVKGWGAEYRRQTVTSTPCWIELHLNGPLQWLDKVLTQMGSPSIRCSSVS
row,Variant,effect of a mutation on the interaction
1,R361C,disrupting interaction strength

# Variants of: B1
# Conditions: with agap2_human AGAP2, Q99490
# Sequence of agap2_human AGAP2, Q99490 (Q99490 whole entry): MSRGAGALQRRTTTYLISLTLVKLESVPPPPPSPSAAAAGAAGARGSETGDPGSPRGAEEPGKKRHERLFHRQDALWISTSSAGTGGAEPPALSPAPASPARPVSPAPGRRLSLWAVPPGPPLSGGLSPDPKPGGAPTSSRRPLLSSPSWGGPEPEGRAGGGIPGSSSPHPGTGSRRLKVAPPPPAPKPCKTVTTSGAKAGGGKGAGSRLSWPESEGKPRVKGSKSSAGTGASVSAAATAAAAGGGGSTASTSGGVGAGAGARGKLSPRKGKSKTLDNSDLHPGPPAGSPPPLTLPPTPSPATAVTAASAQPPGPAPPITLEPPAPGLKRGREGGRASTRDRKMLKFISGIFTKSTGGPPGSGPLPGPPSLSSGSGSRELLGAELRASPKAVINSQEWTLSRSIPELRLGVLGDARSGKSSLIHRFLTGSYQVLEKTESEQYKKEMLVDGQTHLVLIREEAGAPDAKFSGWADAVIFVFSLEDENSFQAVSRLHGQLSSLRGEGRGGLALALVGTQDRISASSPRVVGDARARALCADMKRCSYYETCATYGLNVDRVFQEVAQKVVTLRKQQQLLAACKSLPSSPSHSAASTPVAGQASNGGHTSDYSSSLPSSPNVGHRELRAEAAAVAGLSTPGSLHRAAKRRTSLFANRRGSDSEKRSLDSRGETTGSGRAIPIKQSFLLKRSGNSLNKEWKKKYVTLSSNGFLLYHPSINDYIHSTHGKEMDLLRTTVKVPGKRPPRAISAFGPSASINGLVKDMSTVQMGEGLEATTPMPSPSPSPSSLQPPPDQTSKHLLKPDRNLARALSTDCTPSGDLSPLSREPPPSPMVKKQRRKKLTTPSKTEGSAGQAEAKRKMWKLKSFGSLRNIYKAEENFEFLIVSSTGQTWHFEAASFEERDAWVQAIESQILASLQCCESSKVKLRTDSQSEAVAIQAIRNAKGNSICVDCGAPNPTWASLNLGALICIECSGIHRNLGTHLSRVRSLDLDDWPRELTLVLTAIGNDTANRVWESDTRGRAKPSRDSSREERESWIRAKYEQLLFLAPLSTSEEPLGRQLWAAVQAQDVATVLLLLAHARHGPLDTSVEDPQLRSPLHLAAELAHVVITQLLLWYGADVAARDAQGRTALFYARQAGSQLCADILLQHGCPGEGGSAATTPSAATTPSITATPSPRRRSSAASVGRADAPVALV
row,Variant,effect of a mutation on the interaction
1,R361C,with no effect

# Variants of: B1
# Conditions: with ajuba_human AJUBA
row,Variant,effect of a mutation on the interaction
1,R361C,with no effect

# Variants of: B1
# Conditions: with akt1_human AKT1, P31749
row,Variant,effect of a mutation on the interaction
1,R361C,with no effect

# Variants of: B1
# Conditions: with akts1_human AKT1S1, Q96B36
row,Variant,effect of a mutation on the interaction
1,R361C,with no effect

# Variants of: B1
# Conditions: with akt3_human AKT3, Q9Y243
row,Variant,effect of a mutation on the interaction
1,R361C,with no effect

# Variants of: B1
# Conditions: with alk_human ALK
row,Variant,effect of a mutation on the interaction
1,R361C,with no effect

# Variants of: B1
# Conditions: with aph1a_human APH1A
row,Variant,effect of a mutation on the interaction
1,R361C,with no effect

# Variants of: B1
# Conditions: with arc1a_human ARPC1A
row,Variant,effect of a mutation on the interaction
1,R361C,with no effect

# Variants of: B1
# Conditions: with asxl1_human ASXL1, Q8IXJ9
row,Variant,effect of a mutation on the interaction
1,R361C,with no effect

# Variants of: B1
# Conditions: with bakor_human ATG14, Q6ZNE5
row,Variant,effect of a mutation on the interaction
1,R361C,with no effect

# Variants of: B1
# Conditions: with atpb_human ATP5F1B
row,Variant,effect of a mutation on the interaction
1,R361C,with no effect

# Variants of: B1
# Conditions: with atrx_human ATRX
row,Variant,effect of a mutation on the interaction
1,R361C,with no effect

# Variants of: B1
# Conditions: with aurkb_human AURKB
row,Variant,effect of a mutation on the interaction
1,R361C,with no effect

# Variants of: B1
# Conditions: with ufo_human AXL
row,Variant,effect of a mutation on the interaction
1,R361C,with no effect

# Variants of: B1
# Conditions: with za2g_human AZGP1, P25311
row,Variant,effect of a mutation on the interaction
1,R361C,with no effect

# Variants of: B1
# Conditions: with b2mg_human B2M
row,Variant,effect of a mutation on the interaction
1,R361C,with no effect

# Variants of: B1
# Conditions: with bap1_human BAP1, Q92560
# Sequence of bap1_human BAP1, Q92560 (Q92560 whole entry): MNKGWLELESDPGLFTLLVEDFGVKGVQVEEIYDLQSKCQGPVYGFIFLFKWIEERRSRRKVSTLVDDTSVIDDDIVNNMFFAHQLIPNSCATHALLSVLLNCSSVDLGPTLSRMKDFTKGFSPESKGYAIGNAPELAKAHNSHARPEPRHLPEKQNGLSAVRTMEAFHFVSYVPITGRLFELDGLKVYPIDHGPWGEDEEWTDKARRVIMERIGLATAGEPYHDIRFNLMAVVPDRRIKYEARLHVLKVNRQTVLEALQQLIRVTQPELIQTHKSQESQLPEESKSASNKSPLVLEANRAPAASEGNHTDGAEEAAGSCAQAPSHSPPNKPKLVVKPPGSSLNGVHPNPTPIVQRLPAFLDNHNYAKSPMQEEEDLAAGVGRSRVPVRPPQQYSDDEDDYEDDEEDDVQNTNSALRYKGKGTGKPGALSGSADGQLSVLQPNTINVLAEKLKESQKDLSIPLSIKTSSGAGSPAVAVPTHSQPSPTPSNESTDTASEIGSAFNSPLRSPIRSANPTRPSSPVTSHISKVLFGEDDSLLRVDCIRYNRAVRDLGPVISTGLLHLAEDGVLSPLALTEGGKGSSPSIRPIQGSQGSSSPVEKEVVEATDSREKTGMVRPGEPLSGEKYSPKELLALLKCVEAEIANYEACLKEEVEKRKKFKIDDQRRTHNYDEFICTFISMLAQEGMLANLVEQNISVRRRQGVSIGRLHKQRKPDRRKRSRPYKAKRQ
row,Variant,effect of a mutation on the interaction
1,R361C,with no effect

# Variants of: B1
# Conditions: with becn1_human BECN1, Q14457
row,Variant,effect of a mutation on the interaction
1,R361C,with no effect

# Variants of: B1
# Conditions: with birc2_human BIRC2, Q13490
row,Variant,effect of a mutation on the interaction
1,R361C,with no effect

# Variants of: B1
# Conditions: with braf_human BRAF
row,Variant,effect of a mutation on the interaction
1,R361C,with no effect

# Variants of: B1
# Conditions: with cbl_human CBL
row,Variant,effect of a mutation on the interaction
1,R361C,with no effect

# Variants of: B1
# Conditions: with cblb_human CBLB
row,Variant,effect of a mutation on the interaction
1,R361C,with no effect

# Variants of: B1
# Conditions: with ccnd1_human CCND1, P24385
# Sequence of ccnd1_human CCND1, P24385 (P24385 whole entry): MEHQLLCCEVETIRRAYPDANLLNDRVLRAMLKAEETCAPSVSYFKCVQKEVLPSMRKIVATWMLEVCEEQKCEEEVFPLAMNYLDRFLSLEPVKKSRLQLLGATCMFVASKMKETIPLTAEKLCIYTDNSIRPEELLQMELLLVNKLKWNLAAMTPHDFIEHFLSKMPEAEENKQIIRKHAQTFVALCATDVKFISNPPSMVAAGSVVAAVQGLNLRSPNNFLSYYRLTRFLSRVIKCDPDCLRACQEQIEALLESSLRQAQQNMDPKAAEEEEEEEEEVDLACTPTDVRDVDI
row,Variant,effect of a mutation on the interaction
1,R361C,with no effect

# Variants of: B1
# Conditions: with ccnd2_human CCND2, P30279
row,Variant,effect of a mutation on the interaction
1,R361C,with no effect

# Variants of: B1
# Conditions: with ccnd3_human CCND3, P30281
# Sequence of ccnd3_human CCND3, P30281 (P30281 whole entry): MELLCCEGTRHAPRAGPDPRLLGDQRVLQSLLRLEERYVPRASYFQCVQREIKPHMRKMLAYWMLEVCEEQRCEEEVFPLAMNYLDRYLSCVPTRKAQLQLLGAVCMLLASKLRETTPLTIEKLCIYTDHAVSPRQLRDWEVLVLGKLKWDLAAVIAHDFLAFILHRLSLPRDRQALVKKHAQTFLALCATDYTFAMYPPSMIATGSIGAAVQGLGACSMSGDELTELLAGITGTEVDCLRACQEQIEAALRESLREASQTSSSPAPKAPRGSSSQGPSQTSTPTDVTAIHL
row,Variant,effect of a mutation on the interaction
1,R361C,with no effect

# Variants of: B1
# Conditions: with cd44_human CD44, P16070
row,Variant,effect of a mutation on the interaction
1,R361C,with no effect

# Variants of: B1
# Conditions: with cd79b_human CD79B
row,Variant,effect of a mutation on the interaction
1,R361C,with no effect

# Variants of: B1
# Conditions: with cdk6_human CDK6, Q00534
# Sequence of cdk6_human CDK6, Q00534 (Q00534 whole entry): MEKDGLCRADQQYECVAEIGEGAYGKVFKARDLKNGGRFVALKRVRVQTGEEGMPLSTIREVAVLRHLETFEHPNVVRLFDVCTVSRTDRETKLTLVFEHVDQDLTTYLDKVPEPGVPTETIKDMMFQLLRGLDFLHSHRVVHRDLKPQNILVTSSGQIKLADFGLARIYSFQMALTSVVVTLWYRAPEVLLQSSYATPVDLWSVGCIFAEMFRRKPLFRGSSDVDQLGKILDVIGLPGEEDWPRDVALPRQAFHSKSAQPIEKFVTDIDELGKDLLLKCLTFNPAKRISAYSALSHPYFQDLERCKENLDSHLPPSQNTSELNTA
row,Variant,effect of a mutation on the interaction
1,R361C,with no effect

# Variants of: B1
# Conditions: with cdn2b_human CDKN2B
row,Variant,effect of a mutation on the interaction
1,R361C,with no effect

# Variants of: B1
# Conditions: with cdn2c_human CDKN2C
row,Variant,effect of a mutation on the interaction
1,R361C,with no effect

# Variants of: B1
# Conditions: with cebpa_human CEBPA
row,Variant,effect of a mutation on the interaction
1,R361C,with no effect

# Variants of: B1
# Conditions: with ch3l1_human CHI3L1, P36222
row,Variant,effect of a mutation on the interaction
1,R361C,with no effect

# Variants of: B1
# Conditions: with ctna1_human CTNNA1, P35221
row,Variant,effect of a mutation on the interaction
1,R361C,with no effect

# Variants of: B1
# Conditions: with ctnb1_human CTNNB1, P35222
row,Variant,effect of a mutation on the interaction
1,R361C,with no effect

# Variants of: B1
# Conditions: with cul3_human CUL3, Q13618
row,Variant,effect of a mutation on the interaction
1,R361C,with no effect

# Variants of: B1
# Conditions: with dicer_human DICER1, Q9UPY3
row,Variant,effect of a mutation on the interaction
1,R361C,with no effect

# Variants of: B1
# Conditions: with duox2_human DUOX2, Q9NRD8
row,Variant,effect of a mutation on the interaction
1,R361C,with no effect

# Variants of: B1
# Conditions: with e2f1_human E2F1, Q01094
row,Variant,effect of a mutation on the interaction
1,R361C,with no effect

# Variants of: B1
# Conditions: with e2f2_human E2F2, Q14209
row,Variant,effect of a mutation on the interaction
1,R361C,with no effect

# Variants of: B1
# Conditions: with e2f4_human E2F4, Q16254
row,Variant,effect of a mutation on the interaction
1,R361C,with no effect

# Variants of: B1
# Conditions: with e2f5_human E2F5, Q15329
row,Variant,effect of a mutation on the interaction
1,R361C,with no effect

# Variants of: B1
# Conditions: with if4e_human EIF4E
row,Variant,effect of a mutation on the interaction
1,R361C,with no effect

# Variants of: B1
# Conditions: with epha7_human EPHA7, Q15375
row,Variant,effect of a mutation on the interaction
1,R361C,with no effect

# Variants of: B1
# Conditions: with ephb1_human EPHB1, P54762
# Sequence of ephb1_human EPHB1, P54762 (P54762 whole entry): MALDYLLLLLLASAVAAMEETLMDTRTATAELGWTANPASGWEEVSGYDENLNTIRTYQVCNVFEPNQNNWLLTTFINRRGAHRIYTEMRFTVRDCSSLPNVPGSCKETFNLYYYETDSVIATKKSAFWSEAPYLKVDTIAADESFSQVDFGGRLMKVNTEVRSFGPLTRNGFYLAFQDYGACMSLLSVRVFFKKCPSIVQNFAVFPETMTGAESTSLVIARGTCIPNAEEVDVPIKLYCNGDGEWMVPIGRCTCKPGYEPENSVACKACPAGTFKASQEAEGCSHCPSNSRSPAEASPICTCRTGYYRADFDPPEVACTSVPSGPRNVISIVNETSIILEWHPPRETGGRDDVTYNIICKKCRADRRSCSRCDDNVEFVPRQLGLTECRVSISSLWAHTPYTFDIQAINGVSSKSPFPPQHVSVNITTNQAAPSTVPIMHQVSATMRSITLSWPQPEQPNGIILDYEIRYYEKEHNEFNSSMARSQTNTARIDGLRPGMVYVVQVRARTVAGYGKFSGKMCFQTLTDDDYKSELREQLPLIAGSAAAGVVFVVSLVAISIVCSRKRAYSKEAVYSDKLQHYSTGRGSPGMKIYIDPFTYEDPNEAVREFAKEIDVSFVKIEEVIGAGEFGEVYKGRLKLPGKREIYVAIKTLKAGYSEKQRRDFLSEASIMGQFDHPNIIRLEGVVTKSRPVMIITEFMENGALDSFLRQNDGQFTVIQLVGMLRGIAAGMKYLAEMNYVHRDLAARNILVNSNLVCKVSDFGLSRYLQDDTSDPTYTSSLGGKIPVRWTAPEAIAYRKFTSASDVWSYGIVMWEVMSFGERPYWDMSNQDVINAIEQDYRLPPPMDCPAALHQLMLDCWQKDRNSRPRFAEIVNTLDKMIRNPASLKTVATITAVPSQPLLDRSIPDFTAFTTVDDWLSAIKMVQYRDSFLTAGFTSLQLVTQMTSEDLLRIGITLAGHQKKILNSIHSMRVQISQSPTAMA
row,Variant,effect of a mutation on the interaction
1,R361C,with no effect

# Variants of: B1
# Conditions: with erbb4_human ERBB4, Q15303
row,Variant,effect of a mutation on the interaction
1,R361C,with no effect

# Variants of: B1
# Conditions: with esr1_human ESR1, P03372
row,Variant,effect of a mutation on the interaction
1,R361C,with no effect

# Variants of: B1
# Conditions: with etv1_human ETV1, P50549
row,Variant,effect of a mutation on the interaction
1,R361C,with no effect

# Variants of: B1
# Conditions: with fadd_human FADD
row,Variant,effect of a mutation on the interaction
1,R361C,with no effect

# Variants of: B1
# Conditions: with facd2_human FANCD2, Q9BXW9
row,Variant,effect of a mutation on the interaction
1,R361C,with no effect

# Variants of: B1
# Conditions: with fgf19_human FGF19, O95750
# Sequence of fgf19_human FGF19, O95750 (O95750 whole entry): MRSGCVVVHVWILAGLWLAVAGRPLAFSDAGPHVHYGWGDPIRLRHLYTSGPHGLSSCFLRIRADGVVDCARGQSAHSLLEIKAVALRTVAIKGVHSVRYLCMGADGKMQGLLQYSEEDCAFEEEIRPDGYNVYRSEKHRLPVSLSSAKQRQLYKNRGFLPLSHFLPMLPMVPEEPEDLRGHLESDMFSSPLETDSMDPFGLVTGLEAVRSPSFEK
row,Variant,effect of a mutation on the interaction
1,R361C,with no effect

# Variants of: B1
# Conditions: with fgfr3_human FGFR3, P22607
row,Variant,effect of a mutation on the interaction
1,R361C,with no effect

# Variants of: B1
# Conditions: with fgfr4_human FGFR4, P22455
row,Variant,effect of a mutation on the interaction
1,R361C,with no effect

# Variants of: B1
# Conditions: with foxo1_human FOXO1, Q12778
row,Variant,effect of a mutation on the interaction
1,R361C,with no effect

# Variants of: B1
# Conditions: with foxo3_human FOXO3, O43524
row,Variant,effect of a mutation on the interaction
1,R361C,with no effect

# Variants of: B1
# Conditions: with gbra6_human GABRA6, Q16445
row,Variant,effect of a mutation on the interaction
1,R361C,with no effect

# Variants of: B1
# Conditions: with gata2_human GATA2, P23769
row,Variant,effect of a mutation on the interaction
1,R361C,with no effect

# Variants of: B1
# Conditions: with gata3_human GATA3, P23771
# Sequence of gata3_human GATA3, P23771 (P23771 whole entry): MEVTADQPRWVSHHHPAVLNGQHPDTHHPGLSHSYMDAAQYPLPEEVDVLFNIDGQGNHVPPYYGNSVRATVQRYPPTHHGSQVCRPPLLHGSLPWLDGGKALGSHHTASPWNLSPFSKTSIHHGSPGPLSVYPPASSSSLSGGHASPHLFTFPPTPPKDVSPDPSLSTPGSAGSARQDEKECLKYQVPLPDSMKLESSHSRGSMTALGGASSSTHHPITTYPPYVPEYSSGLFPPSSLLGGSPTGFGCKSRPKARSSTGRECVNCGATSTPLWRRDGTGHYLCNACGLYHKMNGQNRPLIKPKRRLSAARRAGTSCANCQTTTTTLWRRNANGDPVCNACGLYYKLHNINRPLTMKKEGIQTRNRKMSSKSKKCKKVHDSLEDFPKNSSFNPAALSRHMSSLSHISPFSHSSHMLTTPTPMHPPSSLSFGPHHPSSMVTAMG
row,Variant,effect of a mutation on the interaction
1,R361C,with no effect

# Variants of: B1
# Conditions: with gna11_human GNA11, P29992
row,Variant,effect of a mutation on the interaction
1,R361C,with no effect

# Variants of: B1
# Conditions: with gnaq_human GNAQ
row,Variant,effect of a mutation on the interaction
1,R361C,with no effect
